Measurements from the supplement of paper PMC9732359.
± gives the uncertainty stated by the source.

Assay: protein stability index of a GFP-peptide fusion (yeast GPS) (PSI 1-4); higher = more stable; sorted into four equal gates, so the index is relative within each strain
Procedure, shortened: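 For each peptide, the protein stability index sums the read frequency in every gate after multiplying it by the gate number. Read frequencies came from plasmids that were PCR-amplified from each gate and Illumina-sequenced, with reads assigned to strains by barcodes. The gates were four equal bins of GFP/Cherry fluorescence ratio applied to mid-log yeast in leucine-free medium carrying a pooled library of tiled 17-residue yeast protein peptides fused downstream of GFP on a Cherry-expressing plasmid.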

| Sequence | protein stability index (doa10∆) | protein stability index (pdr5∆) | protein stability index (san1∆) | protein stability index (ubr1∆) |
| --- | --- | --- | --- | --- |
| LQRDLIQTKEQVSINSN [YIL149C/MLP2] | 2.78 ± 0.072 | 3.12 ± 0.089 | 3.11 ± 0.065 | 3.27 ± 0.059 |
| LQRTILNRIINHMLIDS [RGR1] | 2.76 ± 0.057 | 2.4 ± 0.081 | 2.21 ± 0.093 | 1.72 ± 0.066 |
| LQYLDKHIKNLEDDSLL [RPN12] | 3.44 ± 0.068 | 3.42 ± 0.081 | 3.35 ± 0.063 | 3.3 ± 0.049 |
| LRAIEKNDDNSCRNPEH [YIL149C/MLP2] | 3.19 ± 0.16 | 3.25 ± 0.088 | 3.27 ± 0.13 | 3.15 ± 0.14 |
| LRDYTTVPRIVQLLSKS [RPN2] | 1.62 ± 0.046 | 1.98 ± 0.053 | 2.26 ± 0.1 | 1.73 ± 0.045 |
| LRELSCCINAAFLALVD [RRP46] | 2.38 ± 0.059 | 2.81 ± 0.074 | 2.88 ± 0.051 | 2.65 ± 0.065 |
| LREYLNLPEHIVPGTYI [RPS10A] | 3.08 ± 0.078 | 3.08 ± 0.064 | 2.82 ± 0.056 | 2.75 ± 0.059 |
| LRFPEHTSSGSVSFKVF [BRR2] | 1.59 ± 0.055 | 1.51 ± 0.054 | 1.33 ± 0.1 | 1.57 ± 0.06 |
| LRIELQSVYNDEKLKTE [SRB8] | 3.17 ± 0.22 | 3.23 ± 0.24 | 3.26 ± 0.12 | – |
| LRKIDMLQKKLVEVEDE [SRB7] | 3.06 ± 0.13 | 3.45 ± 0.11 | 3.42 ± 0.18 | 3.36 ± 0.1 |
| LRLKPGRKYTTLGKLST [RPL16B] | 2.69 ± 0.057 | 2.64 ± 0.062 | 3.03 ± 0.036 | 2.97 ± 0.037 |
| LRLVDDDENNPSHYPHP [RRP6] | 3.11 ± 0.09 | 2.92 ± 0.093 | 2.77 ± 0.069 | 2.89 ± 0.038 |
| LRSTEYSKSFEQFKMVS [POP1] | 2.21 ± 0.089 | 2.63 ± 0.12 | 2.49 ± 0.094 | 2.52 ± 0.11 |
| LSALFTISSKPDILATD [YCS4] | 2.32 ± 0.14 | 2.78 ± 0.14 | 2.72 ± 0.088 | 2.98 ± 0.11 |
| LSEAWRCWKANIPWDVP [PRP8] | 2.15 ± 0.11 | 2.16 ± 0.098 | 1.1 ± 0.15 | 3.42 ± 0.15 |
| LSEDVNLETLVTTKDDL [RPT2] | 3.01 ± 0.13 | 2.87 ± 0.17 | 2.57 ± 0.15 | 2.89 ± 0.096 |
| LSEPLIKIGIRVMKSLS [YCG1] | 1.59 ± 0.066 | 1.98 ± 0.052 | 1.74 ± 0.066 | 1.73 ± 0.06 |
| LSEWEEYLKGSESQLNS [YCS4] | 3.44 ± 0.13 | 3.65 ± 0.13 | 3.46 ± 0.12 | 3.49 ± 0.1 |
| LSHIVYFLVLSPYGNLQ [RPN5] | 1.53 ± 0.054 | 1.33 ± 0.055 | 1.25 ± 0.087 | 1.12 ± 0.034 |
| LSHYAKIRPWRTFRLNE [RPO31] | 2.86 ± 0.058 | 2.4 ± 0.055 | 3.06 ± 0.073 | 2.5 ± 0.051 |
| LSIWIKNYPEYFLKVTF [IRR1] | 1.88 ± 0.056 | 1.77 ± 0.037 | 2.2 ± 0.076 | 1.8 ± 0.047 |
| LSKIKFPESIWKDFTVE [YCG1] | 2.59 ± 0.049 | 1.89 ± 0.04 | 1.87 ± 0.06 | 2 ± 0.03 |
| LSKRQKRKSAQEPELSL [SMC4] | 3.17 ± 0.11 | 3.15 ± 0.078 | 3.09 ± 0.097 | 3.4 ± 0.1 |
| LSLGEAFKKIDAITVKD [COR1] | 3.39 ± 0.29 | – | – | 3.71 ± 0.19 |
| LSLVYEIGGSDLKESMV [ECM29] | 2.98 ± 0.11 | 3.32 ± 0.12 | 3.36 ± 0.051 | 3.28 ± 0.11 |
| LSRPYKALKTNINFASG [CDC53] | 2.4 ± 0.049 | 2.61 ± 0.062 | 2.4 ± 0.057 | 2.66 ± 0.048 |

| Sequence | protein stability index (doa10∆) | protein stability index (pdr5∆) | protein stability index (san1∆) | protein stability index (ubr1∆) |
| --- | --- | --- | --- | --- |
| LSTGRKFERARGRRRSK [RPL18A] | – | – | – | 3.05 ± 0.1 |
| LTDPMTVMFFYHNKHMM [DIB1] | 2.19 ± 0.075 | 2.04 ± 0.061 | 2.33 ± 0.094 | 1.76 ± 0.041 |
| LTHSTPKNFGIGQAVQP [RPL8A] | 3.06 ± 0.06 | 3.01 ± 0.045 | 3.02 ± 0.033 | 3.18 ± 0.036 |
| LTKFRQKLMQLVVLTDV [RGR1] | 1.26 ± 0.097 | 1.16 ± 0.074 | 1.24 ± 0.18 | 1.13 ± 0.05 |
| LTLKHRQNKVQHQRIVA [RPN10] | 1.54 ± 0.071 | 1.97 ± 0.11 | 2.9 ± 0.25 | 1.84 ± 0.12 |
| LTNEDPPGLMYLKAFDK [SSN2] | – | 2.61 ± 0.26 | – | 3.22 ± 0.13 |
| LTPIQKKIMDETPSRLL [ITC1] | 3.33 ± 0.074 | 3.39 ± 0.062 | 3.16 ± 0.049 | 3.39 ± 0.039 |
| LTQEELERIVQIMQNPT [RPS18A] | 2.64 ± 0.099 | 3.08 ± 0.11 | 2.93 ± 0.064 | 2.75 ± 0.12 |
| LTQGINGKEVPLAKIYL [MED1] | 2.52 ± 0.26 | 2.95 ± 0.17 | 2.32 ± 0.2 | 2.21 ± 0.23 |
| LTSNISSLVRSCGEEEF [REC8] | 3.33 ± 0.17 | 2.78 ± 0.13 | 2.21 ± 0.13 | 3.25 ± 0.13 |
| LTSQAPQTTQMFQSQSQ [YDL088C/ASM4] | 3.12 ± 0.11 | 3.16 ± 0.071 | 3.08 ± 0.046 | 3.06 ± 0.057 |
| LTWLSSFSVCKIRCFRY [IRR1] | 2.07 ± 0.053 | 1.59 ± 0.054 | 1.58 ± 0.087 | 1.61 ± 0.04 |
| LTYDKDLTNNPQDDDSQ [MTR3] | 2.8 ± 0.073 | 3.21 ± 0.099 | 3 ± 0.081 | 3.1 ± 0.075 |
| LTYKSELSKSRALQENG [YMR153W/NUP53] | 1.89 ± 0.063 | 1.95 ± 0.041 | 2.01 ± 0.085 | 1.87 ± 0.034 |
| LVAAFIASLERELILAK [YCG1] | 1.79 ± 0.065 | 2.21 ± 0.092 | 1.93 ± 0.081 | 1.48 ± 0.053 |
| LVALSNEPAARLGSEAD [FAS2] | 3.44 ± 0.082 | 3.37 ± 0.073 | 3.45 ± 0.054 | 3.32 ± 0.092 |
| LVDSLATFTSIELTSYE [RPN7] | 1.57 ± 0.057 | 2.08 ± 0.061 | 1.68 ± 0.057 | 1.72 ± 0.027 |
| LVEKVYARFKNDFFPGE [ITC1] | 3.47 ± 0.091 | 3.36 ± 0.1 | 3.05 ± 0.058 | 3.25 ± 0.077 |
| LVHDGLARGLRESTKAL [RPS12] | 3.41 ± 0.091 | 3.52 ± 0.15 | 3.19 ± 0.17 | 2.83 ± 0.17 |
| LVHDVVYDFYGRHVATC [YGL100W/SEH1] | 1.46 ± 0.074 | 1.69 ± 0.06 | 1.41 ± 0.12 | 1.38 ± 0.057 |
| LVNRKPIPFEFQAVIQK [SNF2] | 2.65 ± 0.079 | 2.73 ± 0.057 | 2.71 ± 0.048 | 2.83 ± 0.038 |
| LVPKRCLFESLSNEAAL [RPO31] | – | 2.84 ± 0.2 | – | 2.78 ± 0.22 |
| LVPQLGHVGSVQISNIP [PRP8] | 2.32 ± 0.1 | 2.3 ± 0.065 | 1.91 ± 0.12 | 2.72 ± 0.089 |
| LVPTASFFIASQLQEQF [FAS1] | 1.35 ± 0.047 | 1.88 ± 0.053 | 1.53 ± 0.086 | 1.86 ± 0.04 |
| LVQKFGGADQVTRTQQW [SWI1] | 3.08 ± 0.13 | 3.06 ± 0.088 | 2.88 ± 0.13 | 2.78 ± 0.076 |
| LVQLPKSAMDTFKSVSK [POP3] | 2.65 ± 0.052 | 2.85 ± 0.044 | 2.75 ± 0.047 | 2.54 ± 0.036 |
